± gives the uncertainty stated by the source.

This passage reports abundance fitness results from the Human Domainome abundance scans (Beltran et al. 2025).

The chains are these.
B1: Steroid hormone receptor ERR2, residues 100 to 176; numbered along this chain, O95718 (parent)
chain: KRLCLVCGDIASGYHYGVASCEACKAFFKRTIQGNIEYSCPATNECEITKRRRKSCQACRFMKCLKVGMLKEGVRLD

In this series the parent is B1. Description: abundance fitness (aPCA) (normalised: wild type 0, dead -1); higher = more abundant; growth selection in yeast, the domain comes from the species named. The conditions noted are these: Homo sapiens.
As to KRLCLVCGDIASGYHYGVASCEACKAFFKRTIQGNIEYSCPATNECEITKRRRKACQACRFMKCLKVGMLKEGVRLD [S55A], the abundance fitness came out at 0.278 ± 0.044.

On to KRLCLVCGDIASGYHYGVASCEACKAFFKRTIQGNIEYSCPATNECEITKRRRKDCQACRFMKCLKVGMLKEGVRLD [S55D], for which the abundance fitness was 0.318 ± 0.071.

Turning to KRLCLVCGDIASGYHYGVASCEACKAFFKRTIQGNIEYSCPATNECEITKRRRKHCQACRFMKCLKVGMLKEGVRLD [S55H], the abundance fitness worked out at 0.351 ± 0.094.

KRLCLVCGDIASGYHYGVASCEACKAFFKRTIQGNIEYSCPATNECEITKRRRKKCQACRFMKCLKVGMLKEGVRLD [S55K]: the abundance fitness worked out at 0.149 ± 0.057.

Consider KRLCLVCGDIASGYHYGVASCEACKAFFKRTIQGNIEYSCPATNECEITKRRRKGCQACRFMKCLKVGMLKEGVRLD [S55G], for which the abundance fitness turned out to be 0.336 ± 0.039.

Take KRLCLVCGDIASGYHYGVASCEACKAFFKRTIQGNIEYSCPATNECEITKRRRKICQACRFMKCLKVGMLKEGVRLD [S55I]: the abundance fitness was determined as 0.344 ± 0.09.

As to KRLCLVCGDIASGYHYGVASCEACKAFFKRTIQGNIEYSCPATNECEITKRRRKCCQACRFMKCLKVGMLKEGVRLD [S55C], the abundance fitness stood at 0.393 ± 0.063.

In the case of KRLCLVCGDIASGYHYGVASCEACKAFFKRTIQGNIEYSCPATNECEITKRRGKSCQACRFMKCLKVGMLKEGVRLD [R53G], the abundance fitness came out at 0.049 ± 0.043.

On to KRLCLVCGDIASGYHYGVASCEACKAFFKRTIQGNIEYSCPATNECEITKRRTKSCQACRFMKCLKVGMLKEGVRLD [R53T], for which the abundance fitness is 0.063 ± 0.065.

On to KRLCLVCGDIASGYHYGVASCEACKAFFKRTIQGNIEYSCPATNECEITKRRQKSCQACRFMKCLKVGMLKEGVRLD [R53Q], for which the abundance fitness worked out at 0.096 ± 0.066.

Turning to KRLCLVCGDIASGYHYGVASCEACKAFFKRTIQGNIEYSCPATNECEITKRRVKSCQACRFMKCLKVGMLKEGVRLD [R53V], the abundance fitness was -0.008 ± 0.054.

Consider KRLCLVCGDIASGYHYGVASCEACKAFFKRTIQGNIEYSCPATNECEITKRRKKSCQACRFMKCLKVGMLKEGVRLD [R53K], for which the abundance fitness came to 0.015 ± 0.078.

For KRLCLVCGDIASGYHYGVASCEACKAFFKRTIQGNIEYSCPATNECEITKRRAKSCQACRFMKCLKVGMLKEGVRLD [R53A], the abundance fitness was determined as 0.005 ± 0.051.

As for KRLCLVCGDIASGYHYGVASCEACKAFFKRTIQGNIEYSCPATNECEITKRRLKSCQACRFMKCLKVGMLKEGVRLD [R53L], the abundance fitness was 0.074 ± 0.057.

As to KRLCLVCGDIASGYHYGVASCEACKAFFKRTIQGNIEYSCPATNECEITKRRMKSCQACRFMKCLKVGMLKEGVRLD [R53M], the abundance fitness turned out to be 0.107 ± 0.082.

Turning to KRLCLVCGDIASGYHYGVASCEACKAFFKRTIQGNIEYSCPATNECEITKRRCKSCQACRFMKCLKVGMLKEGVRLD [R53C], the abundance fitness is -0.103 ± 0.08.

With KRLCLVCGDIASGYHYGVASCEACKAFFKRTIQGNIEYSCPATNECEITKRRDKSCQACRFMKCLKVGMLKEGVRLD [R53D], the abundance fitness came out at 0.026 ± 0.093.

Turning to KRLCLVCGDIASGYHYGVASCEACKAFFKRTIQGNIEYSCPATNECEITKRRSKSCQACRFMKCLKVGMLKEGVRLD [R53S], the abundance fitness was -0.114 ± 0.058.

With KRLCLVCGDIASGYHYGVASCEACKAFFKRTIQGNIEYSCPATNECEITKRREKSCQACRFMKCLKVGMLKEGVRLD [R53E], the abundance fitness is 0.073 ± 0.061.

As to KRLCLVCGDIASGYHYGVASCEACKAFFKRTIQGNIEYSCPATNECEITKRRPKSCQACRFMKCLKVGMLKEGVRLD [R53P], the abundance fitness is -0.069 ± 0.074.

Regarding KRLCLVCGDIASGYHYGVASCEACKAFFKRTIQGNIEYSCPATNECEITKRRYKSCQACRFMKCLKVGMLKEGVRLD [R53Y], the abundance fitness is -0.14 ± 0.13.

Take KRLCLVCGDIASGYHYGVASCEACKAFFKRTIQGNIEYSCPATNECEITKRRNKSCQACRFMKCLKVGMLKEGVRLD [R53N]: the abundance fitness turned out to be 0.027 ± 0.093.

Consider KRLCLVCGDIASGYHYGVASCEACKAFFKRTIQGNIEYSCPATNECEITKRRWKSCQACRFMKCLKVGMLKEGVRLD [R53W], for which the abundance fitness is -0.084 ± 0.06.

For the variant KRLCLVCGDIASGYHYGVASCEACKAFFKRTIQGNIEYSCPATNECEITKRRFKSCQACRFMKCLKVGMLKEGVRLD [R53F], the abundance fitness was 0.065 ± 0.08.

On to KRLCLVCGDIASGYHYGVASCEACKAFFKRTIQGNIEYSCPATNECEITKRRRESCQACRFMKCLKVGMLKEGVRLD [K54E], for which the abundance fitness came out at 0.129 ± 0.055.

For the variant KRLCLVCGDIASGYHYGVASCEACKAFFKRTIQGNIEYSCPATNECEITKRRRGSCQACRFMKCLKVGMLKEGVRLD [K54G], the abundance fitness came to 0.155 ± 0.043.

As to KRLCLVCGDIASGYHYGVASCEACKAFFKRTIQGNIEYSCPATNECEITKRRRNSCQACRFMKCLKVGMLKEGVRLD [K54N], the abundance fitness is 0.175 ± 0.086.

Regarding KRLCLVCGDIASGYHYGVASCEACKAFFKRTIQGNIEYSCPATNECEITKRRRISCQACRFMKCLKVGMLKEGVRLD [K54I], the abundance fitness was 0.073 ± 0.093.

As to KRLCLVCGDIASGYHYGVASCEACKAFFKRTIQGNIEYSCPATNECEITKRRRQSCQACRFMKCLKVGMLKEGVRLD [K54Q], the abundance fitness turned out to be 0.195 ± 0.065.

For the variant KRLCLVCGDIASGYHYGVASCEACKAFFKRTIQGNIEYSCPATNECEITKRRRCSCQACRFMKCLKVGMLKEGVRLD [K54C], the abundance fitness was -0.351 ± 0.1.

Take KRLCLVCGDIASGYHYGVASCEACKAFFKRTIQGNIEYSCPATNECEITKRRRDSCQACRFMKCLKVGMLKEGVRLD [K54D]: the abundance fitness is 0.092 ± 0.077.

For KRLCLVCGDIASGYHYGVASCEACKAFFKRTIQGNIEYSCPATNECEITKRRRLSCQACRFMKCLKVGMLKEGVRLD [K54L], the abundance fitness came out at 0.005 ± 0.049.

Consider KRLCLVCGDIASGYHYGVASCEACKAFFKRTIQGNIEYSCPATNECEITKRRRVSCQACRFMKCLKVGMLKEGVRLD [K54V], for which the abundance fitness came out at 0.007 ± 0.045.

As for KRLCLVCGDIASGYHYGVASCEACKAFFKRTIQGNIEYSCPATNECEITKRRRYSCQACRFMKCLKVGMLKEGVRLD [K54Y], the abundance fitness worked out at 0.091 ± 0.08.

For KRLCLVCGDIASGYHYGVASCEACKAFFKRTIQGNIEYSCPATNECEITKRRRRSCQACRFMKCLKVGMLKEGVRLD [K54R], the abundance fitness is 0.008 ± 0.044.
